Data from paper PMC7545742, “A Toolbox for Site-Specific Labeling of RecQ Helicase With a Single Fluorophore Used in the Single-Molecule Assay”.

Key:
[1] = target: T1, RecQ-Cy5 (sortase A ligation of RecQ516-LPETG and Cy5-GGG-HRDC) (Escherichia coli, UniProt P15043 1-516+=LPETGGG+524-609+=VD, E609C;internal_change); experiment: smFRET; 5 nM RecQ-Cy5, free protein washed off; EFRET 0 to ~0.84; duration 4.65 +/- 0.17 s; HRDC contacts 3' end; smFRET on DNA with biotinylated strand in reaction chamber; 5 nM RecQ-Cy5 bound 2 min, then washed; reaction buffer composition, pH and temperature not in the material; details: protein: recombinant; tags: Cy5-maleimide at C610; label: Cy3 3' of strand 1; biotin 3' of strand 2; 3' overhang 15 nt, 18 bp stem; one A:G mismatch (strand 1 nt 8)
[2] = target: T1, RecQ-Cy5 (sortase A ligation of …); experiment: smFRET; RecQ-Cy5, same conditions (5 nM); EFRET 0 to ~0.92; duration 5.19 +/- 0.28 s; HRDC contacts 5' end; smFRET on DNA with biotinylated strand in reaction chamber; 5 nM RecQ-Cy5 bound 2 min, then washed; reaction buffer composition, pH and temperature not in the material; details: protein: recombinant; tags: Cy5-maleimide at C610; label: Cy3 5' of strand 1; biotin 5' of strand 2; fork 1:2, 17 bp stem, 5' arm 7 nt (strand 1), 3' arm 10 nt (strand 2)
wild-type RecQ helicase = wild-type RecQ helicase (Escherichia coli, UniProt P15043 1-609); experiment: smFRET; EFRET 0.92 to 0.54; bound dwell time 4.47 +/- 0.23 s; smFRET on DNA with biotinylated strand in reaction chamber; 5 nM RecQ-Cy5 bound 2 min, then washed; reaction buffer composition, pH and temperature not in the material; details: protein: recombinant; label: Cy3 3' of strand 1; internal Cy5 after nt 4 and biotin 3' of strand 2; 3' overhang 10 nt, 16 bp stem; one A:G mismatch (strand 1 nt 8)
[3] = target: T1, RecQ-Cy5 (sortase A ligation of …); experiment: smFRET; 5 nM RecQ-Cy5, free protein washed off; EFRET 0 to ~0.5; duration 5.17 +/- 0.82 s; smFRET on DNA with biotinylated strand in reaction chamber; 5 nM RecQ-Cy5 bound 2 min, then washed; reaction buffer composition, pH and temperature not in the material; details: protein: recombinant; tags: Cy5-maleimide at C610; label: Cy3 3' of strand 1; biotin 3' of strand 2; 3' overhang 10 nt, 18 bp stem; one A:G mismatch (strand 1 nt 8)

B1: 3' 15-nt overhang DNA, Cy3 (mixed)
DNA 1: AATCCGTAGAGCAGAGGTGTGTGTGGTGTTTTT
DNA 2: ACCTCTGCTCGACGGATT
modifications: none
B1: binds [1].

B2: fork DNA, 10-nt 3' overhang and 7-nt 5' overhang (mixed)
DNA 1: TTTTTTTATGTATGACAAGGAAGG
DNA 2: CCTTCCTTGTCATACATAAATTTTTTT
modifications: none
B2: binds [2].

B3: 16 bp with 3' 10-nt overhang, Cy3/Cy5 (mixed)
DNA 1: AATCCGTAGAGCAGAGGTGTGTGTGG
DNA 2: CTCTGCTCGACGGATT
modifications: none
B3: binds (wild-type RecQ helicase).

B4: 3' 10-nt overhang DNA, Cy3 (mixed)
DNA 1: AATCCGTAGAGCAGAGGTGTGTGTGGTG
DNA 2: ACCTCTGCTCGACGGATT
modifications: none
B4: binds [3].
